The source of these data is paper PMC6541275.

The assay addresses Wild-type Microplasmin (human) (UniProt P00747).
Sequence of UniProt P00747 (P00747 whole entry): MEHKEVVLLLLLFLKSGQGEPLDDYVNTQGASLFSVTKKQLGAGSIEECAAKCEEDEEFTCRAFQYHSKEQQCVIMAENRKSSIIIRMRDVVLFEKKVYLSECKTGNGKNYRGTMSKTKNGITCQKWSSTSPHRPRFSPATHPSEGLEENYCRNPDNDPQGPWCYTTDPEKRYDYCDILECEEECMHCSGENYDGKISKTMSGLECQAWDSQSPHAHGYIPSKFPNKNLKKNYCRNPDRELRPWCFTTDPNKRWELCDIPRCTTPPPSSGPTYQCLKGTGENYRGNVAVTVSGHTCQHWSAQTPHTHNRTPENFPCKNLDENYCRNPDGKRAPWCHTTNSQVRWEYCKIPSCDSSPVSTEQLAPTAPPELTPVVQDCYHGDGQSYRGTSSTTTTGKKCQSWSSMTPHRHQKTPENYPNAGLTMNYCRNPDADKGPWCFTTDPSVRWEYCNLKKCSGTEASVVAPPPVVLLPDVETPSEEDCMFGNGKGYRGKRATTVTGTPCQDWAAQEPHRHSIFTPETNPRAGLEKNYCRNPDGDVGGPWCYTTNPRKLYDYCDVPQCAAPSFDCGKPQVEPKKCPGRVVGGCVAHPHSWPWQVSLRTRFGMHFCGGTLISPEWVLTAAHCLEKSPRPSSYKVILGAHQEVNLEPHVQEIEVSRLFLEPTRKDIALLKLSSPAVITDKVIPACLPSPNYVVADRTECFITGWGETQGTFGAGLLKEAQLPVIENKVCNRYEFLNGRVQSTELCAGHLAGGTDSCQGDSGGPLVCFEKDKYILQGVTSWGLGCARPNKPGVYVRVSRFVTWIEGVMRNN

B1: α2-antiplasmin (natural protein)
chain: NQEQVSPLTLLKLGNQEPGGQTALKSPPGVCSRDPTPEQTHRLARAMMAFTADLFSLVAQTSTCPNLILSPLSVALALSHLALGAQNHTLQRLQQVLHAGSGPCLPHLLSRLCQDLGPGAFRLAARMYLQKGFPIKEDFLEQSEQLFGAKPVSLTGKQEDDLANINQWVKEATEGKIQEFLSGLPEDTVLLLLNAIHFQGFWRNKFDPSLTQRDSFHLDEQFTVPVEMMQARTYPLRWFLLEQPEIQVAHFPFKNNMSFVVLVPTHFEWNVSQVLANLSWDTLHPPLVWERPTKVRLPKLYLKHQMDLVATLSQLGLQELFQAPDLRGISEQSLVVSGVQHQSTLELSEVGVEAAAATSIAMSRMSLSSFSVNRPFLFFIFEDTTGLPLFVGSVRNPNPSAPRELKEQQDSPGNKDFLQSLKGFPRGDKLFGPDLKLVPPMEEDYPQFGSPK
Turning to B1, the In vitro half-life of inactivation by α2-antiplasmin: residual amidolytic activity (Chromozym PL, 405nm) of 20nM microplasmin with 60nM antiplasmin, 100mM sodium phosphate pH 7.2, 25°C, 15sec-30 min amounted to 5 min.
